Measurements as given in the supplement of paper PMC9170038.

System: K4 kissing-loop RNA reporter
Assay: apparent KD of K4 kissing-loop reporter; higher = weaker reporter binding
Conditions: Eterna round: R107; input ligand: arginine 13.2 mM
Procedure: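 RNA-MaP round R107: designed RNA switches with theophylline, tryptophan, arginine or FMN aptamers are transcribed on-chip within common flanks. They are titrated with a labelled K4 kissing-loop RNA reporter in RNA-MaP buffer (100 mM Tris pH 7.5, 80 mM KCl, 4 mM MgCl2), without ligand or with the indicated ligand. Median apparent KD per design.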
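Note: bound reporter read as fluorescence of individual clusters on recovered sequencing chips by microscopy, with normalized cluster intensities fitted with a binding model.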

Compared with “UAAUUUAUGUCUUUAAUUUUAUAAUCAGAUACCAGUGAUUUAUGACACCCUUGGCAGCUGUAUUGAGUGAUGUUCUUAUACUUAA [JR_Nu_ExcTheophyA_Sub022]”, “UUCUCUCAGGCACGCGAGUGAUGUUCGCGGCGAGGACCGGUACGGCCGCCACUCGCGCCUGAGAGAGGUUAUCAAAGAUAGCCUU [whbob_SS_tryp_A]” is 1.8-fold lower in “apparent KD of K4 kissing-loop reporter” value: 0.167 µM for the first, 0.0923 µM for the second.

“GGUGGCUUACAAAGCUCAGUGAUGUUGAGCCGAGGACCGGUACGGCCGCCACUCGUUUGCCAUUCACUACAGUUACAAGCACUAG [theeternabot_exclusion_KL_Trp_A_2]” and “UUUUAUUAAUUCUUCUAGUGAUGUUAGAUACGAGGACCGGUACGGCCGCCACUCGCUUAUUGGUUUAUAAAUUUUAUAUUAUUUA [JR_SSTryptoA_Sub016]” are within 1.5-fold of each other in “apparent KD of K4 kissing-loop reporter” value: 0.217 µM for the first, 0.296 µM for the second.

Going from “CCCUCACGAGUGAUGUUCGUAGGGUACAGUCAGGAUAUCAUGCGGUUGAGAAGGGACAGGAAGGGCGGCGGCGGGUUGCUCACCG [Atera]” to “CGGUACGUCGCAGGAUAUGGAUUCUGGAGUGAUGUUUCAGAGGCAUGCGGAAAACGCAUGCCGACUCCAGAAGGGCGACGUACCG”, the “apparent KD of K4 kissing-loop reporter” value falls from 0.163 µM to 0.0858 µM (1.9-fold).

Compared with “GGAUAGGAUAGAGGAUAUGGAAAACACAGAAAUGACUUGUUGUGUUUAUCCAUAGGGAGUGAUGUUCCAGAAGGCUGUCCUAUCG [MatMod 21 - Jieux - Exclusion - FMN B]”, “GUCAUGCGUUCAGGAUAUGGACCAAUUUAUAUUGCUUAUGCUGUGCCCUGUAUGGCAGUGAUGUUGCCAGAAGGGAGGGCAUGCA [Erbionvean]” is 2.1-fold lower in “apparent KD of K4 kissing-loop reporter” value: 0.184 µM for the first, 0.088 µM for the second.

First: AGGAUCACGUCAGUGAUGUUGACAAGAGAUACCAGAGACGAAAGUCUCCCUUGGCAGCUCAUUGUGAUCCGUGACAAAGGUCACA [Omei KL hio A SS C v2]
Second: GCGCGGGUCAGUGAUGUUGACCCUCGGAGACGAGGACCGGUACGGCCGCCACUCGUCCGCGCAGCUGAGGCAAAAGCCUCGGCAA [Omei KL Tryp A SS B v5]
The “apparent KD of K4 kissing-loop reporter” value of the first is 2.1-fold higher: 0.293 µM for the first, 0.142 µM for the second.

Going from “AUUAAUAACUGAGGAUAUCGUUUUACUGUAGUGAUGUUACAGAAAAUGCACAUUAUAAUUUCUAUUCGAGAAGGCAGAAUAAUUA [JR_ExcFMNB_Sub013]” to “ACUAUCAUUACGCAUGGAGUGAUGUUUCAGCGAGGACCGGUACGGCCGCCACUCGUUACGUGGUUAGAGCCAAUGUUCGAGAAGC [theeternabot_exclusion_KL_Trp_A_39]”, the “apparent KD of K4 kissing-loop reporter” value rises from 0.0755 µM to 0.832 µM (11-fold).

First: ACACAGAGUUGCCGAGUGAUGUUCGGCUUACGAGGACCGGUACGGCCGCCACUCGUUACUCUGUGUUUUGGACACCAAGGCGUAG [Edvemaquan]
Second: UCCUGCUGUCAGCCACGAAAGUGGAUUGAUACCAGAGUCGAAAGACUCCCUUGGCAGCGAGUGAUGUUCGCAGCAGGUAAAUAAA [MatMod 3 - Jieux - Exclusion - Theophylline A]
The “apparent KD of K4 kissing-loop reporter” value of the first is 1.9-fold higher: 0.492 µM for the first, 0.257 µM for the second.

“UUAUAACCCAGUGAUGUUGGGUAGCGGCCACGAGGACCGGUACGGCCGCCACUCGAGGUUUGACCAGUGAUGUUGGACUAUUUGG [Same state Tryptophan A GF 5]” and “AGUGACGAGUGAUGUUCGUGAACACUGGAUACCAGCAGUCUUAUCUGCCCUUGGCAGCCAACGGGAACCGAAUGUUAAGACCUGU [theeternabot_exclusion_KL_Theo_A_4]” are within 1.5-fold of each other in “apparent KD of K4 kissing-loop reporter” value: 0.134 µM for the first, 0.114 µM for the second.

“CCCGUGGGUUUGAGAGGGCUUGUGGGAAGUAAGGAUAUUUAGGGAGAAAGAAGGUACUAUAGAAUAUAGUGAUGUUAUAUAUGGG [#06 K4 FMN A Same State]” and “CAUACGCAUGGAGGAUAUGAGAUUUCUCAUAUUAUUUAUUAUUCUCAGUGAUGUUGGGAUUUAAACUCAGAAGGCCAUGUGUAUG [Ex FMN B 8]” are within 1.5-fold of each other in “apparent KD of K4 kissing-loop reporter” value: 0.218 µM for the first, 0.176 µM for the second.

First: AUAUUUAUUUAGUCACUUUUCAUAUUAUGUCAGGAUAUCGUAUUUUCGAGAAGGGACUCAUGGUAGUGAUGUUACCUAUUUCUCA [#03 K4 FMN A Exclusion]
Second: GCUACUGCUGAAGGAUAUAUCAAUAGAGUGAUGUUCUAUGUCGGUAGCCCGAAAGGGCUACCGACGAUAGAAGGUCAGCAGUAGC
The “apparent KD of K4 kissing-loop reporter” value of the first is 2.7-fold lower: 0.382 µM for the first, 1.02 µM for the second.

“GCGCGCGGCGGAGGAUAUAGCCGGUGAUCCGAGAAAGUGAGUGAUGUUUACGGAGUUGAGGAUAUGUUAGAAGGCCGCCGCGCGC [abcdefghijklmnopqrstuvwx]” and “UGGGUGUAGUGAUGUUAUAUAGAGAGUGAUACCAGCUUAGAGAGAAGCCCUUGGCAGCAUAGAAGAGUAUCAUUGGAGGAGGAGG [ExTheophyl.Ay]” are within 1.5-fold of each other in “apparent KD of K4 kissing-loop reporter” value: 0.751 µM for the first, 0.527 µM for the second.

“AGGAUCCACCAGUGAUGUUGGAAAUACUCCAAGGAUAUGACGAAAGUCAGAAGGUGGUAGACUGGACAAAGUCCAGUCGGAUCCA [FmnA 28 #SwitchBubble #K4Early]” and “UUAUUAAUCGCAGAUACCAGUCCAGAAUGAAUACUAUAGUGAUGUUAUAAUAAAGGGAAGGACCCUUGGCAGCUGUAAUAUAUUU [AstrosSsTheB#3]” are within 1.5-fold of each other in “apparent KD of K4 kissing-loop reporter” value: 0.247 µM for the first, 0.278 µM for the second.

First: UGAUACCAGACGGCCGCCACUCCUGCAGUCAAAGACUGCAAAGGAAUAUUCGUCCAGUGAUGUUGGAGGACCGGGUCUGGUAUCU [TrypBX 11 #SwitchBubble #Palindromic #StaticStem]
Second: GGUUAAAGCACCCGGAGUGAUGUUCCGGAUACCAGCAAACCAACUUGCCCUUGGCAGCCGUAUAGCGUCCGGUGGGCCGAGCAUA [Raarce]
The “apparent KD of K4 kissing-loop reporter” value of the first is 7.4-fold higher: 0.698 µM for the first, 0.0943 µM for the second.

In the case of “UGGGAUGGGCGAGGAUAUGGUGAGGUGGCGGUUGUUAGUGAUGUUGGUGAUGCUAGUGAUGUUUGUCCAGAAGGCGCGGGAUUUU [BDazzled]”, the “apparent KD of K4 kissing-loop reporter” value is reported as 0.104 µM.
